The source of these data is patent US20090022782A1, “Blood Retainable Device Exhibiting Selective Degradability in Tumor Tissue” (NATIONAL UNIVERSITY CORP. HOKKAIDO UNIVERSITY, priority 2005, published 2009).

Ends that are not written are not given here. * marks the point of attachment. DOPE = dioleoylphosphatidylethanolamine, CCCCCCCC/C=C\CCCCCCCC(=O)OC[C@H](COP(=O)(O)OCCN*)OC(=O)CCCCCCC/C=C\CCCCCCCC; MeO‑PEG succinate = methoxy poly(ethylene glycol) succinate

Data set [1] deals with T1, MMP-2 (Homo sapiens, UniProt P08253).
T1 construct: purchased Sigma
T1 sequence (P08253 110-660): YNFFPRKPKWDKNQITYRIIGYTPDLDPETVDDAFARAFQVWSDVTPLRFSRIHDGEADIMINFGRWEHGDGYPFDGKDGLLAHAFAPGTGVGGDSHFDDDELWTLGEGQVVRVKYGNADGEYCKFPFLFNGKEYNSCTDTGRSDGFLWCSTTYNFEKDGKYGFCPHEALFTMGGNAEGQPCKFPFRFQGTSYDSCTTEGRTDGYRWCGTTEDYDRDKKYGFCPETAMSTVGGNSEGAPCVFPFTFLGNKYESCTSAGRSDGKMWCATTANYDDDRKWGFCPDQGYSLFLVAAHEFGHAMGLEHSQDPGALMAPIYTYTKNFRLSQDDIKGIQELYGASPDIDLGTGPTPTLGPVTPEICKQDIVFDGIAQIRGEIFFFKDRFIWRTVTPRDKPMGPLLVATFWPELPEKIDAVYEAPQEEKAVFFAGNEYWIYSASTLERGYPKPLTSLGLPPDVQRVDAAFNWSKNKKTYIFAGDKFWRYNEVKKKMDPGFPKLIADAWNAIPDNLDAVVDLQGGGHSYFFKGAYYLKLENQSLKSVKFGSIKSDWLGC
Nature of the data set: Decomposition of the peptide by MMP-2, reverse phase HPLC. The following applies: 0.5 mM peptide, MMP2 53 nM, 230 nM and 450 nM, 37° C., 2 hours. In kind it is biochemical. Here is the method: Matrix metalloproteinase 2 (MMP-2) was purchased from Sigma. DOPE-PEG was purchased from Avanti. Trypsin was purchased from Life Technologies. DISMIC was purchased from Advantec. Reverse phase HPLC was performed by using Model 1321H1 (GILSON), UV/VIS-155 (GILSON) as a detector, SOSMOSIL 5C18-AR-II (Nacalai Tesque) as a column, and 0.5% TFA-H2O and 0.5% TFA-acetonitrile filtered through Millicup-LH vacuum-driven bottletop filter unit (Millipore) as a mobile phase. The flow rate was 1.0 mL/minute.
First, it was examined whether or not the peptide was decomposed by MMP-2. A 0.5 mM peptide solution (25 μL) dissolved in a solution containing 10 mM HEPES (pH 7.4), 140 mM NaCl and 2 mM CaCl2 was analyzed by reverse phase HPLC. Further, MMP2 was added to the 0.5 mM peptide solution (25 μL) at a final concentration of 53 nM, 230 nM and 450 nM, each mixture was incubated at 37° C. for 2 hours, and then the whole volume of the mixture was analyzed by HPLC to confirm whether or not the peptide was decomposed by MMP2.

Data set [2] is described as follows: Particle diameter and zeta-potential of compaction body and MENDs (Example 4). The data set is classed as physicochemical. To be noted: Example 4, in HBG; PEG-lipid ratio (5% or 15%) not given. Here is the method: According to the formula (I) mentioned in Example 3, the charge ratio (+/−) was determined to be 1.5, and a compaction body of pDNA coding for luciferase and protamine was prepared in HEPES buffered glucose (10 mM HEPES, pH 7.4, 5% glucose, HBG).
In the same manner as that of Example 3, a lipid membrane consisting of 30% DOTAP, 40% DOPE, and 30% Chol was prepared. To this membrane, PEG-DSPE or PEG-peptide-DOPE was added at a molar ratio of 5% or 15%, and the mixture was evaporated to obtain lipid membranes. Then, the compaction body was added to each of these lipid membranes, and the mixtures were sonicated to prepare MEND, PEG-modified MEND containing PEG-DSPE, and PEG-modified MEND containing PEG-peptide-DOPE.

The nature of data set [3]: Particle diameter and zeta-potential of MENDs (Example 3). In kind it is physicochemical. As for the experimental part: In order to prepare a negatively charged compaction body, the charge ratio (+/−) was determined to be 1.5 according to the formula (1). To 30 μL of pDNA (0.5 mg/mL), 120 μL of 10 mM HEPES-HCl (pH 7.4) was added. To 5 μL of protamine (2 mg/mL), […] of 10 mM HEPES-HCl (pH 7.4) was added. Protamine was slowly added dropwise to the pDNA solution with stirring by a vortex mixer. Formation of the compaction body was confirmed by measurement of the particle diameter and zeta-potential.
Lipid solutions of 1 mM in ethanol, each of which 125 μL was taken as 100%, were put into test tubes at molar ratios of 30% DOTAP, 40% DOPE, and 30% Chol. As for addition of PEG-lipids, 1 mM PEG-DSPE solution or PEG-peptide-DOPE solution in ethanol was added at a molar ratio of 5% or 15% based on the lipids except for the PEG-lipids, which were taken as 100%. Chloroform was added in the same volume of ethanol to the mixture in each tube, and the mixture was stirred. Then, the solvent was evaporated in a desiccator to obtain a lipid membrane. Then, the compaction body solution (250 μL) was added to the lipid membrane, and the mixture was left standing at room temperature for 15 to 30 minutes for hydration, and then sonicated for 1 to 2 minutes. The particle diameter and the zeta-potential were measured. Any significant difference was not observed between the values measured for MENDs containing PEG-peptide-DOPE and MENDs containing PEG-DSPE, and thus it was considered that equivalent MENDs were successfully prepared.

A further data set concerns HEK293 cells. Nature of the data set: Gene expression (luciferase activity) after transfection with MENDs, HEK293 cells. In kind it is cell-based, human. Here is the method:
(§1) By using D′MEM added with inactivated FBS (FBS final concentration: 10%), the human fibrosarcoma-derived HT1080 cells were cultured on a sterilized culture dish in a CO2 incubator (37° C., 5% CO2). When the cells reached 70% confluence, the cells were removed from the dish by using 0.5 mM EDTA-PBS, the cell suspension was diluted to a density of 1 to 5×10^4 cells/mL using fresh D′MEM, and the cells were subcultured on a sterilized dish. In a similar manner, human kidney […] HEK293 cells were cultured. In the case of the HEK293 cells, the cells were removed from the dish by using 0.05% Trypsin/0.5 mM EDTA-PBS, and subcultured.
(§2) One day before the transfection, the HT1080 cells and the HEK293 cells were each inoculated into 1 mL of a medium on a 24-well plate at a density of 4×10^4 cells/well. A sample, prepared to be corresponding to 0.4 μg of DNA, was diluted to 250 μL with FBS- and antibiotic-free D′MEM (hereinafter abbreviated as “D′MEM(−)”) in the case of a serum free medium, or diluted similarly with D′MEM in the case of serum containing medium. […] The luciferase activity (RLU) in 20 μL of the supernatant was measured, and proteins were measured according to the BCA method for the supernatant diluted 5 times with DDW to calculate RLU/mg protein.

Data set [4] has as its target T1, MMP-2. Description: Evaluation of PEG cleavage by MMP-2 (aggregation / particle diameter of DOPE liposomes). In kind it is biochemical. To be noted: for aggregation of the liposomes: DOPE liposomes containing PEG-peptide-DOPE at 10%. Here is the method: It was evaluated whether or not the PEG-peptide-DOPE obtained in Example 1 was cleavable with MMP. For in vitro evaluation, a system was used with which the cleavage of PEG was detected on the basis of an increase in particle diameter. […] Cylinder-shaped lipids form a lamellar structure (bilayer structure), i.e., a liposome structure, whereas inverse cone-shape lipids form a […] (FIG. 1). It is known that when a PEG-lipid is added at a certain ratio to DOPE, the lipids form a lamellar structure and stably form liposomes. Therefore, if a matrix metalloproteinase is made to act on DOPE-containing liposomes prepared by using PEG-peptide-DOPE, thereby the peptide is decomposed and PEG is cleaved, DOPE molecules from which PEG is cleaved can no longer form liposomes, and take the hexagonal structure to initiate the aggregation. The above hypothesis was adopted as an evaluation method for PEG cleavage. Further, for in vitro evaluation of PEG cleavage, a method of measuring genetic expression activity was adopted. If the interaction of MEND and cell membranes is enhanced by cleavage of PEG, […].
(§3) A 1 mM lipid solution dissolved in ethanol, of which 125 μL was taken as 100%, was put into test tubes at various molar ratios, and a 1 mM DOPE-PEG solution was also added as required. Chloroform was added in the same volume of ethanol to the mixture in each tube, and the mixture was stirred. Then, the solvent was evaporated in a desiccator to obtain a lipid membrane. After the preparation of the lipid membrane, a solution (250 μL) containing 20 mM HEPES (pH 7.4), 280 mM NaCl, and 4 mM CaCl2 was added, and after hydration for 30 minutes, the mixture was sonicated for 1 minute to prepare liposomes.
(§4) Then, to the prepared liposomes (50 μL), PBS (10 μL), 230 nM or 5.5 nM MMP-2 in terms of final concentration, and 230 nM bovine serum albumin in terms of final concentration were added, the mixture was incubated at 37° C., and after 2, 8 and 24 hours, the particle diameter was measured. […] Even with the addition of 1% of DOPE-PEG, liposomes having a particle size less than 200 nm and showing stable dispersion was successfully prepared.

The subject of another data set is HT1080 cells. Description: Gene expression (luciferase activity) after transfection with MENDs, HT1080 cells. The data set is classed as cell-based, human. Here is the method: as §1, §2
Data set [5] is described as follows: Particle diameter and aggregation of DOPE liposomes versus addition ratio of PEG-lipid. The data set is classed as physicochemical. To be noted: for aggregation on incubation: DOPE liposomes with PEG-peptide-DOPE, 37° C. Here is the method: as §3, §4
Also in this experiment, liposomes having a particle size less than 200 nm and showing stable dispersion were similarly prepared with the addition of 1% of PEG-peptide-DOPE.

The mark [6] stands for this setting: MEND with PEG-lipid at molar ratio 5%.
The mark [7] stands for this setting: MEND with PEG-lipid at molar ratio 15%.

As to GGGVPLSLYSGGGG [peptide], the “decomposition of the peptide by MMP-2 (HPLC peak of degradation product)” value with MMP-2 [1] is given as “peak became larger in an enzyme concentration-dependent manner”.
Consider “PEG-peptide-DOPE: MeO-PEG succinate bound to Gly-Gly-Gly-Val-Pro-Leu-Ser-Leu-Tyr-Ser-Gly-Gly-Gly-Gly, bound to dioleoylphosphatidylethanolamine; tested as component of liposomes and MENDs ({MeO‑PEG succinate}-GGGVPLSLYSGGGG-{DOPE})”, for which the particle diameter is given as 141 nm in data set [2], 162.2 nm in data set [3] (setting [6]) and 141.2 nm in data set [3] (setting [7]). In data set [2], the ξ -potential was found to be 12.8 mV. For the same substance, the results for the zeta-potential entry in data set [3] (setting [6]) and in data set [3] (setting [7]) were “+18.79 mV” and “+2.80 mV”, respectively. The “increase of gene expression compared with PEG-DSPE” value is recorded as 5 times with HEK293 cells (MEND modified with 5% of PEG) and 35 times in the data set with HT1080 cells (MEND modified with 5% of PEG). For the same substance, the “gene expression activity compared with the PEG-DSPE modification group” value with HEK293 cells (MEND modified with 15% of PEG) and in the data set on HT1080 cells (MEND modified with 15% of PEG) was “did not give the increase of the gene expression activity” each time. Further, the “aggregation of the liposomes” value with MMP-2 [4] (5.5 nM MMP-2, 37° C.) is recorded as “Aggregation of the liposomes was not observed”; with MMP-2 [4] (230 nM BSA, 37° C.), “Aggregation was not observed”; with MMP-2 [4] (230 nM MMP-2, 37° C.), “aggregation was observed”; in the data set with MMP-2 [4] (in PBS, 37° C.), “Aggregation of the liposomes was not observed”. Moreover, the “cleavage by MMP-2” value with MMP-2 [4] (lipid in the state of constituting liposomes) is “cleaved by MMP-2”. For the same substance, the values for the aggregation on incubation result in data set [5] (PEG content up to 5%) and in data set [5] (addition amount of 10%) were “aggregation was observed” and “aggregation was not observed”, respectively. In addition, the particle size entry in data set [5] (DOPE liposomes, addition of 1% of PEG-peptide-DOPE) is reported as “less than 200 nm”. Moreover, in data set [5] (DOPE liposomes, suggested by the results), the “elevation of phase transition temperature compared with DOPE-PEG” value was “did not elevate the phase transition temperature as much as DOPE-PEG”.
